For experiment [1], the target named is T1, Bradi1g37810 (with Bradi2g41950) (Brachypodium distachyon, UniProt I1GXY5).
T1 construct: gene LOC100840898; recombinant from E. coli, Ni-NTA enriched; receptor 196 residues; with Protein phosphatase 2C
T1 sequence (I1GXY5 1-196): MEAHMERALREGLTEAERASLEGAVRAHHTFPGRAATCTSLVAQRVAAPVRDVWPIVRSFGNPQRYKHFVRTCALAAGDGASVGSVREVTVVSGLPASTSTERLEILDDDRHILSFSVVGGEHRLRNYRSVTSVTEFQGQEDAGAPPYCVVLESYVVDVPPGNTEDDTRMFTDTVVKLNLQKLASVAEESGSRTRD
The experiment can be described thus: receptor-mediated PP2C inhibition, 4-methylumbelliferyl phosphate fluorescence. To be noted: ligand 0.1 uM unless otherwise noted, Mn2+, pH 7.9, 30 °C, n = 1 screen. It counts as biochemical.

Experiment [2] addresses T2, AtPYL6 (with TaABI1) (Arabidopsis thaliana, UniProt Q8S8E3).
T2 construct: gene PYL6; recombinant from E. coli, Ni-NTA enriched; the partner PP2C is from wheat; with Protein phosphatase 2C ABI1 (Triticum aestivum)
T2 sequence (Q8S8E3 1-215): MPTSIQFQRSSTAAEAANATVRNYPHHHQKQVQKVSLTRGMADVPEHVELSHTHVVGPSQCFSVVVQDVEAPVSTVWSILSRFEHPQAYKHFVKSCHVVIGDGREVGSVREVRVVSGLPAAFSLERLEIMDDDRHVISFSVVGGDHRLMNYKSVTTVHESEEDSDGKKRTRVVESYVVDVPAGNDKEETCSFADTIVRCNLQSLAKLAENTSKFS
T2 sequence (A5A6P8 1-479 partner): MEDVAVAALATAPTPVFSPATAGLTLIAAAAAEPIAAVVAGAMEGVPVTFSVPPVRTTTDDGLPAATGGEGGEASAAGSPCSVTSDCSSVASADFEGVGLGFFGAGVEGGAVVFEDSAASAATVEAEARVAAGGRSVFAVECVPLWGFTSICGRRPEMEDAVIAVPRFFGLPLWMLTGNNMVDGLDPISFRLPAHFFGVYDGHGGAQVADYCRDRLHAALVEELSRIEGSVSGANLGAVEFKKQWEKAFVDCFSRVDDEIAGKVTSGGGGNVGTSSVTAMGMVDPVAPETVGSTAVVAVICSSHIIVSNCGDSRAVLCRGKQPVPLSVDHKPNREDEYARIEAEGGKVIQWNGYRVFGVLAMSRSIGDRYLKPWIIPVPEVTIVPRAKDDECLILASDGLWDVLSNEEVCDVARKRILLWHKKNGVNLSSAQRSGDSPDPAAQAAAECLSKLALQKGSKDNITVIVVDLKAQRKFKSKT
The description is as above. It counts as biochemical. The following applies: ligand 0.1 uM unless otherwise noted, Mn2+, pH 7.9, 30 °C.

The target of experiment [3] is Bradi2g41950 (B. distachyon).
In experiment [4] the target is TaABI1 (wheat).
Experiment [5] concerns the target AtABI1 (A. thaliana) (UniProt P49597).
Experiment [6] addresses TaABI1 (wheat). The source holds these as a separate data set.

Chain of AtABI1 (A. thaliana) (P49597 whole entry): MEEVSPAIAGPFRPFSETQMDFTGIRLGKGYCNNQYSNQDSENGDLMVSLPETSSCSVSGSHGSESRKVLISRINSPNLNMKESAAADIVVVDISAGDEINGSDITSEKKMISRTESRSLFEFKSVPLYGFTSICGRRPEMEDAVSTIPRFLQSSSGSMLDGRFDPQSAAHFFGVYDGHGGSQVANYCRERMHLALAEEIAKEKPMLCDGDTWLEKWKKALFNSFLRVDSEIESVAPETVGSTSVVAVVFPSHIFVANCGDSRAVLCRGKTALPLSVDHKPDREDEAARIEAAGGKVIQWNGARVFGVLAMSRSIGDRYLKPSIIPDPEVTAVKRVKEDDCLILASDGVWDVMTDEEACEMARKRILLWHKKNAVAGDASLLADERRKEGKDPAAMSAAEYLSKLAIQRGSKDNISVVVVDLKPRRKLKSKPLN

For the molecule `CO[C@]1(/C=C/C(C)=C\C(=O)O)C(C)=CC(=O)CC1(C)C` [PBI352], the “% inhibition of PP2C” value in experiment [1] is given as “subfamily III receptor Bd1g37810 is similar to that of the subfamily II, Ta_PYL2DS_FL”; in experiment [2] it was “the three A. thaliana receptors against the Ta_ABI1 PP2C were plotted”.

In turn, Bradi2g32250 (receptor) came in with a Bradi2g41950 phosphatase activity with receptor and PBI352 (Figure C in S2 File; n = 1) (% inhibition of PP2C) in experiment [3] of 90.

Regarding Bradi3g09580 (receptor), in experiment [3], the Bradi2g41950 phosphatase activity with receptor and PBI352 (Figure C in S2 File; n = 1) (% inhibition of PP2C) came out at 90.

Regarding Ta_PYL2DS_FL (receptor), the TaABI1 phosphatase activity (4-methylumbelliferyl phosphate) with the receptor, on addition of ABA (Figure B in S2 File) (% reduction of phosphatase activity) in experiment [4] came to 90. In addition, the PP2C phosphatase activity, receptor to PP2C 10:1, with 0.1 uM PBI352 (Fig 2B) (% decrease in PP2C activity) in experiment [5] and in experiment [6] was 30 throughout. Besides, the PP2C phosphatase activity, receptor to PP2C 10:1, with 0.1 uM PBI354 (Fig 2C) (% decrease in PP2C activity) in experiment [5] and in experiment [6] was 0 in each case.

The values are drawn from publication PMC5068739 (PLoS ONE, 2016).
